# Where “and” joins values, the source holds several entries; their conditions need not be identical. Equal values may be shown once. Ends that are not written are not given here.
# Key:
# [1] = target: TM24 peptide expressed as a EYFP fusion in COS cells; test: FRAP; TM24 as EYFP fusion in live COS-7 cells, 37 °C; diffusion rate compared with membrane proteins of known number of TM domains
# [2] = target: the molecule itself; test: SDS-PAGE without cross-linker; 0.4 mg/ml peptide in DPC micelles, no BS3; SDS-PAGE, silver stain
# [3] = target: the molecule itself; test: FRAP; FITC peptides in giant unilamellar vesicles of EggPC, 1000 lipids per peptide, PBS; lateral diffusion rate
# [4] = target: the molecule itself; test: single-molecule photobleaching TIRF; L_(CX3CL1) membrane preparation diluted in excess DOPC, spread on a coverslip; stepwise bleaching of EYFP, 126 particles
# [5] = target: the molecule itself; test: native gel or EMSA; L_(CX3CL1) cell lysate (40 µg total protein) solubilised in 1% DDM, NativePAGE Novex Bis Tris 3-12% gel, Western blot with anti-CX3CL1
# [6] = target: the molecule itself; test: native gel or EMSA; plasma membranes of L_(CX3CL1) solubilised with CALX173ACE, CX3CL1 immuno-purified on anti-CX3CL1 beads, eluted by pH shock; clear native PAGE 4-15%, 4 °C, Western blot
molecule,measurement,setting,value
TM24 peptide expressed as a EYFP fusion in COS cells (domain or fragment),stoichiometry N,[1],7
KKVGLLAFLGLLFCLGVAMFTYKK (two lysines added to ensure solubility; the 20 residues of the TM domain of CX3CL1; also called TM-CX3CL1 peptide; CX3CL1 transmembrane peptide; source: synthetic peptide) [TM24 peptide (transmembrane domain of CX3CL1 with two lysines at each end)],stoichiometry N,[2],2
"KKVGLLAFLGLLFCLGVAMFTYKK (also: FITC, position not given here, two lysines added to ensure solubility; the 20 residues of the TM domain of CX3CL1; also called TM24 conjugated with fluorescein; source: synthetic peptide) [TM24-FITC]",binding result,[3],binds
"CX3CL1-EYFP fusion protein (L929 cells stably expressing CX3CL1-YFP) (natural protein, UniProt P78423 25-397, looked up) QHHGVTKCNITCSKMTSKIPVALLIHYQQNQASCGKRAIILETRQHRLFCADPKEQWVKDAMQHLDRQAAALTRNGGTFEKQIGEVKPRTTPAAGGMDESVVLEPEATGESSSLEPTPSSQEAQRALGTSPELPTGVTGSSGTRLPPTPKAQDGGPVGTELFRVPPVSTAATWQSSAPHQPGPSLWAEAKTSEAPSTQDPSTQASTASSPAPEENAPSEGQRVWGQGQSPRPENSLEREEMGPVPAHTDAFQDWGPGSMAHVSVVPVSSEGTPSREPVASGSWTPKAEEPIHATMDPQRLGVLITPVPDAQAATRRQAVGLLAFLGLLFCLGVAMFTYQSLQGCPRKMAGEMAEGLRYIPRSCGSNSYVLVPV",stoichiometry N,[4],4.3 and 3 to 7 (2×)
same,stoichiometry N,[5],~3
same,stoichiometry N,[6],5

# From PMC7271195, “CX3CL1 homo-oligomerization drives cell-to-cell adherence” (Scientific Reports, 2020)
